According to patent US20230242902A1, “A HIGHLY ERROR-PRONE […] R[…] FOR TARGETED CONTINUOUS EVOLUTION IN VIVO” (The Regents of the University of California, priority 2017, published 2023):

B1: S370Q: TP-DNAP2 variant (protein, listed as Kluyveromyces lactis)
chain: MNDELAFLNSQIDDYSDDIEFLRTEVFRINRYSKSIYSLMKNSSKEAIKETIEFNKYGQEIHSKIKEKEISLIEAIKLMEKKYKYLRSLNKTKDKSKKKKIHTKDIETLKTIYKTKADFDIRNFKNAETFTYENYSLLIPSEKELIDLIPEIEEDYSYYFYVSLTITGPTIFGGVTRKVPIIDTYGDINKDFYNKIKENITKVLDRVPFYEEKESEIICKKVLITLTVNKWESIDKWYKNVKSKSKKFKDFTLFLASDTSKNCVQQCVEYLGGKWNTNYSLEKMIPQQKIVTYIPLLMDIQYVQSMEDLISDFDEPNTDCKNIARLLKWNGHMGVITKIDKDVKINRIQRKRIIDVENKEVKEVFFDIEQFSDETKHQIPYLICWSYLGELYYRTGKNCIKEFVEEILSYNVDIILYAWYGSGYDYQHVLPYMKSKCIKDKYIIKNNMITYGELYYENAIIYLKDPYLFILTSLDKASKAFNVINKGEFPHSIIHSWEDLNKILPNWVKIQKRMIEYKDDNKLNIYYKNIEIFENDRNYNTILENAIEYCKVDVLAMEKVWIKFKKLLEKNLNITVSVKTFTLSQLSMKIMESKLPKYVKLYVPTLEEYSKIRNAIYGGRVISKNGIYEENIVYADVVSLYPSAMKLLKHSYGKPKLVDYIDFEKHGIYRVTLLNKHDQEPKNYLNFVPRRINRKLTWEWFKIHEGWYHTYDLIIAKSEGFDIYCHEGFEYPEKDYIFNDFIDTLYSMKETHTACSCEEQPCPIRMVAKIALNGGGYGKFVQKPIDKEIYIVKRDVVAGECDKLQENENGEICIGKRLVKRPLFYNLDSENYDKMIIEKEDEPIYSTQCGISILSASRYRLYKLCKQFENIDIIYSDTDSIFVKQKSVDWELFKSKCGSELGQLDSTIDDTKNAIISKMYIGGAKMYAFEYLNNKNKLITKLHCKGVPNYMLSLNQFKYLMESPDNTIAYKFEIIRRKLVNVITKDLIKDIKQT
B2: Y424Q: TP-DNAP2 variant (protein, listed as Kluyveromyces lactis)
chain: MNDELAFLNSQIDDYSDDIEFLRTEVFRINRYSKSIYSLMKNSSKEAIKETIEFNKYGQEIHSKIKEKEISLIEAIKLMEKKYKYLRSLNKTKDKSKKKKIHTKDIETLKTIYKTKADFDIRNFKNAETFTYENYSLLIPSEKELIDLIPEIEEDYSYYFYVSLTITGPTIFGGVTRKVPIIDTYGDINKDFYNKIKENITKVLDRVPFYEEKESEIICKKVLITLTVNKWESIDKWYKNVKSKSKKFKDFTLFLASDTSKNCVQQCVEYLGGKWNTNYSLEKMIPQQKIVTYIPLLMDIQYVQSMEDLISDFDEPNTDCKNIARLLKWNGHMGVITKIDKDVKINRIQRKRIIDVENKEVKEVFFDIESFSDETKHQIPYLICWSYLGELYYRTGKNCIKEFVEEILSYNVDIILYAWYGSGQDYQHVLPYMKSKCIKDKYIIKNNMITYGELYYENAIIYLKDPYLFILTSLDKASKAFNVINKGEFPHSIIHSWEDLNKILPNWVKIQKRMIEYKDDNKLNIYYKNIEIFENDRNYNTILENAIEYCKVDVLAMEKVWIKFKKLLEKNLNITVSVKTFTLSQLSMKIMESKLPKYVKLYVPTLEEYSKIRNAIYGGRVISKNGIYEENIVYADVVSLYPSAMKLLKHSYGKPKLVDYIDFEKHGIYRVTLLNKHDQEPKNYLNFVPRRINRKLTWEWFKIHEGWYHTYDLIIAKSEGFDIYCHEGFEYPEKDYIFNDFIDTLYSMKETHTACSCEEQPCPIRMVAKIALNGGGYGKFVQKPIDKEIYIVKRDVVAGECDKLQENENGEICIGKRLVKRPLFYNLDSENYDKMIIEKEDEPIYSTQCGISILSASRYRLYKLCKQFENIDIIYSDTDSIFVKQKSVDWELFKSKCGSELGQLDSTIDDTKNAIISKMYIGGAKMYAFEYLNNKNKLITKLHCKGVPNYMLSLNQFKYLMESPDNTIAYKFEIIRRKLVNVITKDLIKDIKQT

What was measured:
p2-delORF2-URA3 = experiment: Complementation of native TP-DNAP2 deletion (p2-delORF2-URA3 replication in trans); format: cell-based, S. cerevisiae
Text: First, TP-DNAP2, which is ORF2 of p2, was deleted by homologous recombination of a synthetic cassette encoding URA3. Since p2 is a multi-copy plasmid, the resulting strain (GA-Y069) harbored a mixture of the parental wt p2 and the recombinant p2 with ORF2 deleted (p2-delORF2-URA3), along with unaltered p1. In this strain, both the wt p2 and recombinant p2-delORF2-URA3 plasmids rely on TP-DNAP2 encoded on the parental wt p2 plasmid for replication. Thus, loss of wt p2 should disable replication of p2-delORF2-URA3. […] Next, the same experiment was repeated in the presence of a codon-optimized TP-DNAP2 expressed in trans from a standard yeast CEN6/ARS4 nuclear plasmid (pGA55-reTP-DNAP2). […] Therefore, p2-derived plasmids can be replicated by TP-DNAP2 encoded on a standard nuclear plasmid, simplifying the characterization of p2 replication by error-prone TP-DNAP2 variants.

p2-encoded leu2* = experiment: p2 leu2* fluctuation tests in GA-Y021 (p2 mutation rate reporter strain); format: cell-based, S. cerevisiae; conditions: for fold increase of p2 mutation rate: GA-Y021, mutual orthogonality experiment, 48 replicates; for Per-base substitution rate pf p2: TP-DNAP2 variant in trans, wt TP-DNAP2 in cis, (95% C.I.); for Per-base substitution rate pf p2 / fold increase of p2 substitution mutation rate: 36 replicates; for Fold increase: p2 substitution rate over no variant in trans; for fold increase of p2 substitution mutation rate: reconfirmation
How it was run: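 Yeast GA-Y021 carrying wt TP-DNAP2 plus variants in trans; replicate cultures grown 48 h at 30° C in pH 5.8 SC dropout, spot-plated on leucine-free medium, colonies counted after 5 days. m by p0 method (six replicates) or Ma-Sandri-Sarkar MLE (36–48 replicates), normalized to titer, p2 copy number (mKate2) and 2.33 bp target.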

Molecule	ability to complement deletion of native TP-DNAP2 and sustain p2-delORF2-URA3 replication (p2-delORF2-URA3)	fold increase of p2 mutation rate (p2-encoded leu2*) [fold]	Per-base substitution rate pf p2 (p2-encoded leu2*)	Fold increase (p2-encoded leu2*)	fold increase of p2 substitution mutation rate (p2-encoded leu2*) [fold]
B1	not active enough to fully complement a deletion of the native TP-DNAP2	29	83.0 (62.8-105) ×10^−10	13.9	~14
B2	not active enough to fully complement a deletion of the native TP-DNAP2	16	77.5 (56.9-100) ×10^−10	13.0	~13
